Residue numbers refer to the chain shown, from its start. Where no end group is shown, it is not given here.
What was measured:
[1] = target: T1, hAREG: human AREG comprising residues 101-184 of the human pro-AREG with an N-terminal AVI tag (human, biotinylated using BirA enzyme (Avi tag)); experiment: ELISA screening after phage library selection
T1 construct: Expressed in E. coli with His6-TRX-3C site-Avi tags and cleaved by HRV 3C protease; also called biotinylated hAREG
T1 chain: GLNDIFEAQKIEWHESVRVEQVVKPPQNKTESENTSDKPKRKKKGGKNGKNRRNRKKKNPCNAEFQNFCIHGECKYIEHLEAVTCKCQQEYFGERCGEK

[2] = target: T2, mAREG: mouse AREG comprising residues 94-177 of the mouse pro-AREG with an N-terminal AVI tag (mouse, biotinylated using BirA enzyme (Avi tag)); experiment: ELISA screening after phage library selection
T2 construct: Expressed in E. coli, cleaved by HRV 3C protease, biotinylated; also called biotinylated mAREG
T2 chain: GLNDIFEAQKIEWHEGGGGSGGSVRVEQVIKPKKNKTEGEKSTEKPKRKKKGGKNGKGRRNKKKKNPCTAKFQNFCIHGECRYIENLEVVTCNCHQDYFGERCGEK

[3] = target: T3, biotinylated mAREG-EGFd (expressed in E. coli) (mouse, UniProt P31955 135-177, limits assumed, biotinylated); experiment: phage antibody library selection and ELISA screening
T3 construct: domain: EGFd; E. coli-expressed biotinylated form used for the library selection; not the mFc fusion m33
T3 chain (looked up): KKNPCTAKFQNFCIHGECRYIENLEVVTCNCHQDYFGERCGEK
Method: (§1) Phage particles expressing scFv on their surface (phage-ScFv) were prepared from the library and used for selection of scFvs against the target antigens including the biotinylated AREG proteins and peptides. The antigens were captured on streptavidin-conjugated magnetic M-280 Dynabeads® (Life Technologies) and then incubated with 5×10¹² phage particles prepared from the library, respectively. For each soluble AREG protein or peptide (antigen, Ab), two rounds of selection were performed. For obtaining cross-reactive human mAbs recognizing both hAREG and mAREG, the hAREG and mAREG were used respectively in the 1st and 2nd rounds of selection. […] Some of the phage-Abs were subsequently converted into human IgG1 (hIgG1) or mouse IgG2a format and analyzed for binding to both hAREG and mAREG using enzyme-linked immunosorbent assay (ELISA) or Biacore.
(§2) About […] of AREG protein or peptide at 100 μL per well were then captured onto the plates by incubation at 30° C. for 1 hour. […] Specific bound phage-scFvs were detected by adding HRP-conjugated mouse anti-M13 antibody (GE Healthcare) and incubated for 30 mins at 30° C. […] The absorbance at 450 nm with the correction wavelength set at 630 nm was read by a microplate reader (Bio-Rad). […]

C18 peptide [4] = target: T4, C18 peptide (human, cysteine pairing not given here; also: biotinylated, position not given here); experiment: phage antibody library selection on the C18 peptide and ELISA screening
T4 construct: Synthetic (Scilight-peptide); also called hAREG-C18; C-terminal peptide
T4 peptide: GSSGKCQQEYFGERCGEK
Method: as §1, §2

[5] = target: T1, hAREG: human AREG comprising residues …; experiment: hybridoma screening by ELISA on biotinylated hAREG and SPR
Method: The supernatant of hybridoma clones were examined for binding activity to biotinylated hAREG by ELISA. Clones with high binding activity were selected and expanded for subsequent subcloning, and the supernatant of the subclones were analyzed by ELISA and SPR. The SPR analysis was performed using Biacore T200 instrument (GE Life Sciences). Diluted supernatant was captured on anti-mFc CM5 biosensor chip, then 200 nM of hAREG EGF domain-hFc flowed in mobile phase. Subclones with high affinity was expanded for RNA extraction. Cells were resuspended in TRIzol (Life Technologies), and total RNA was extracted following the instruction manual. The cDNA of subclones was synthesized using PrimeScript™ RT Master Mix (TaKaRa). The VH and VL genes of each antibody were amplified using a set of PCR primers specific to mouse antibody variable genes. PCR products were cloned into a PCR sequencing vector for sequencing.

mAREG-EGFd-DLLA-mFc = target: T5, mAREG-EGFd-DLLA-mFc (mouse, UniProt P31955 135-177, limits assumed); experiment: competition ELISA; antibody titrated against 50 nM mAREG-DLLA on captured mEGFR-ECD
T5 construct: Expressed in 293F cells; also called mAREG-DLLA
T5 chain: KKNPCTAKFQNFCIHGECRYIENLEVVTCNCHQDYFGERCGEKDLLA
Method: Briefly, streptavidin (Sigma, 5 μg/mL) were coated in U-bottom 96-well plates, 100 nM biotinylated hEGFR-ECD or mEGFR-ECD in 100 μL per well were then captured onto the plates. Different antibodies at serial diluted concentrations were mixed with 5 nM hAREG-DLLA or 50 nM mAREG-DLLA protein and added to the ELISA plate. The binding of hAREG-DLLA to hEGFR-ECD or the binding of mAREG-DLLA to mEGFR-ECD was detected by HRP-conjugated mouse anti-mouse IgG Fc antibody (Thermo Fisher).
To facilitate the competition ELISA assay, we used the hAREG-EGFd-DLLA-mFc (hAREG-DLLA) or mAREG-EGFd-DLLA-mFc (mAREG-DLLA) as the ligands for binding to EGFR in the assay.

C18 peptide [6] = target: T4, C18 peptide; experiment: ELISA, biotinylated C18 peptide captured on streptavidin-coated plate, bound IgG detected with HRP anti-Fc antibody
Method: (§3) Streptavidin (Sigma, […]) in phosphate buffered saline (PBS) was coated in U-bottom 96-well plate (Nunc, MaxiSorp™), 100 μL per well, at 4° C. overnight or 37° C. for 1 hour.
(§4) About […] of AREG protein or peptide at 100 μL per well were then captured onto the plates by incubation at 30° C. for 1 hour. For phage-scFv based ELISA, serial diluted phage-scFvs in PBS containing 2% nonfat milk were added to each well at 100 μL per well. Specific bound phage-scFvs were detected by adding HRP-conjugated mouse anti-M13 antibody (GE Healthcare) and incubated for 30 mins at 30° C. In between each incubation step, the ELISA plate was washed for 6 times with PBST solution (0.05% Tween20 containing PBS) at 300 µL per well. Followed by HRP-conjugated antibody incubation, the ELISA signal was developed by incubating with TMB substrate (Sigma) for 5-10 mins at 30° C. and then the reaction was stopped with 2M H₂SO₄ at 50 µL per well. The absorbance at 450 nm with the correction wavelength set at 630 nm was read by a microplate reader (Bio-Rad). For IgG based ELISA, the method was basically the same as described above for phage-scFvs except the bound antibodies were detected by HRP-conjugated mouse anti-Fc secondary antibody (Thermo Fisher Scientific).

[7] = target: T2, mAREG: mouse AREG comprising residues …; experiment: ELISA, biotinylated mAREG captured on streptavidin-coated plate, bound IgG detected with HRP anti-Fc antibody
Method: as §3, §4

[8] = target: T1, hAREG: human AREG comprising residues …; experiment: ELISA, biotinylated hAREG captured on streptavidin-coated plate, bound IgG detected with HRP anti-Fc antibody
Method: as §3, §4

hAREG-E149K variant = target: T6, hAREG-E149K variant (human, UniProt P15514 142-184); experiment: SPR (Biacore T200)
T6 construct: also called E149K variant of hAREG-EGFd
T6 chain: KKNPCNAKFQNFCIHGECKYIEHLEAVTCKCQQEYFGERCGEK

hAREG-H164N variant = target: T7, hAREG-H164N variant (human, UniProt P15514 142-184); experiment: SPR (Biacore T200)
T7 construct: also called H164N variant of hAREG-EGFd
T7 chain: T6 chain with K8E, H23N

mAREG-EGFd-mFc = target: T8, mAREG-EGFd-mFc (mouse, UniProt P31955 135-177); experiment: SPR, Biacore T200; mAb captured on anti-human Fc chip, antigen in solution
T8 construct: also called EGF domain of mAREG (aa135-177) fused with mFc tag; not shown: mFc tag (Fc fragment of mouse IgG2a as for hAREG-EGFd-mFc)
T8 chain: T3 chain (looked up)
Method: (§5) To evaluate affinities of different mouse hybridoma mAbs or their humanized and engineered variants, SPR measurement was performed using Biacore T200 instrument. mAbs were captured on anti-human Fc CM5 biosensor chip surface, hAREG-EGFd-mFc, mAREG-EGFd-mFc or hAREG-98aa (purchased from PeproTech, cat #100-55B) in serial dilutions were injected over antibody-bound surface, followed by a dissociation phase. Association rates (Ka) and dissociation rates (Kd) were calculated using the one-to-one Langmuir binding model (BIA Evaluation Software, GE Life Sciences). The equilibrium dissociation constant (KD) was calculated as the ratio kd/ka.

hAREG-98aa = target: T9, hAREG-98aa (human, UniProt P15514 101-198); experiment: as above
T9 construct: Bought protein
T9 sequence (looked up): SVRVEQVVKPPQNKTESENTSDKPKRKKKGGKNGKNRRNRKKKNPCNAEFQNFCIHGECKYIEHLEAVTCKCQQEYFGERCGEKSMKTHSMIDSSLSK
Method: as §5

hAREG-EGFd-mFc = target: T10, hAREG-EGFd-mFc (human; mouse, UniProt P15514 142-184); experiment: as above
T10 construct: Expressed in 293F cells; not shown: Fc fragment of mouse IgG2a
T10 chain: T6 chain with K8E
Method: as §5

B1: E1L2 (antibody, V domains shown)
VH: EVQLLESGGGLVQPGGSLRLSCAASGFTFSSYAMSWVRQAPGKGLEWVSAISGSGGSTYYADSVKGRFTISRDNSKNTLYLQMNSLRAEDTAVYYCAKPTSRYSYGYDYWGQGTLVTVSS
VL: QAGLTQPPSVSKGLRQTATLTCTGNSNNVGDQGAVWLQQHQGHPPRLLSYRNNNRPSGISERFSASRSGNTASLTITGLQPEDEADYYCSTWDSGLNSVVFGGGTQLTVL
notes: Human mAb from a phage scFv library; Phage-Abs were converted into human IgG1 or mouse IgG2a format
- binding result [1]: binds
- binding result [2]: binds
- binding result [3]: binds
- binding result (C18 peptide [4]): binds

B2: 23H8 (antibody, V domains shown)
VH: EVQLQESGGGLVKPGGSLKLSCAASGFTFNSYAMSWVRQTPEKRLEWVATISTGGSHTYYPDSVKGRFTISRDNAKNTLYLQMSSLRSEDTAMYYCARHGYLLYDGYYEWYFDVWGAGTTVTVSS
VL: DIVLTQSPASLAVSLGQRATISCKASQSVDYDGHSFLNWYQQKPGQPPKLLIYAASNLESGLPARFSGSGSGTDFTLNIHPVEEEDAATYYCQQSTEDPPYTFGGGTKLEIK
notes: Mouse hybridoma mAb; made recombinantly as mIgG1, mIgG2a or chimeric human IgG1; also called m23H8
- binding result [5]: binds

B3: 9C12 (antibody, V domains shown)
VH: EVKLVESGGGLVKPGGSLKLSCAASGFTFSSYPMSWVRQTPEKRLEWVATISTGGTYTYYPDSVKGRFTISRDNAKNTLYLQMSSLRSEDTAMYYCARQGPIYYGNYYYAMDYWGQGTSVTVSS
VL: DIVMTQPPLSLPVSLGDQASISCRSSQSLVHSDGNTYLHWYLQRPGQSPKLLIYKVSNRFSGVPDRFSGSGSGTDFTLKISRVEAEDLGVYFCSQSTHVPYTFGGGTKLEIK
notes: Mouse hybridoma mAb; made recombinantly as mIgG1, mIgG2a or chimeric human IgG1; also called m9C12
- binding result [5]: binds

B4: P7 (antibody, V domains shown)
VH: EVQLVQSGGGVVQPGRSLRLSCAASGFIFSSHAMSWVRQAPGKGLEWVSAISGSGGSTYYADSVKGRFTISRDNSKNTLYLQMNSLRAEDTAVYYCAKVDTKFDPWGQGTLVTVSS
VL: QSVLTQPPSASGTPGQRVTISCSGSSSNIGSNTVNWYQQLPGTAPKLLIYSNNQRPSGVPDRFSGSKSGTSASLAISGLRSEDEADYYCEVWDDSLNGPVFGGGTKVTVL
notes: Human mAb from a phage scFv library, selected on the C18 peptide; Human IgG1 or mouse IgG2a format
- binding result (mAREG-EGFd-DLLA-mFc): binds
- EC50 (read off the curve) (C18 peptide [6]): ~0.06 nM
- EC50 (read off the curve) [7]: ~0.9 nM
- EC50 (read off the curve) [8]: ~0.08 nM

B5: E1H3L4 (antibody, V domains shown)
VH: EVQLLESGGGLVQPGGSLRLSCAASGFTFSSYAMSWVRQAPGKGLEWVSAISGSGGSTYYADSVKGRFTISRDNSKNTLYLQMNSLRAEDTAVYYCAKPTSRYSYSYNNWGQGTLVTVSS
VL: QAVLTQPPSASGTPGQRVTISCTGNSNNVGDQGAVWYQQLPGTAPKLLIYRNNNRPSGVPDRFSGSKSGTSASLAISGLQSEDEADYYCSTWDKNNKSVVFGGGTKLTVL
notes: Human IgG1 or mouse IgG2a format
- binding result (mAREG-EGFd-DLLA-mFc): binds
- EC50 (read off the curve) (C18 peptide [6]): ~0.2 nM
- EC50 (read off the curve) [7]: ~0.5 nM
- EC50 (read off the curve) [8]: ~0.06 nM

B6: hu9C12v4 (antibody, V domains shown)
VH: EVQLVESGGGLVKPGGSLRLSCAASGFTFSSYPMSWVRQAPEKGLEWVSTISTGGRYTYYPDSVKGRFTISRDNAKNSLYLQMNSLRAEDTAVYYCARQGPIYYGNYYYAMDYWGQGTTVTVSS
VL: DIVMTQSPLSLPVTLGDPASISCRSSQSLVDGEDGTYLNWFQQRPGQSPKLLIYKVSERFDGVPDRFSGSGSGTDFTLKISRVEAEDVGVYYCSQSTHVPYTFGGGTKVEIK
notes: Humanized 9C12 variant
- binding result (mAREG-EGFd-DLLA-mFc): binds
- binding result (hAREG-E149K variant): binds
- binding result (hAREG-H164N variant): no binding
- Kd (mAREG-EGFd-mFc): 9.01 nM
- Kd (hAREG-98aa): 0.462 nM
- koff (hAREG-98aa): 0.00372 s⁻¹
- kon (hAREG-98aa): 8.04e+06 M⁻¹ s⁻¹
- Kd (hAREG-EGFd-mFc): 1.04 nM
- koff (hAREG-EGFd-mFc): 0.00077 s⁻¹
- kon (hAREG-EGFd-mFc): 745000 M⁻¹ s⁻¹

— US20230041071A1 (NATIONAL INSTITUTE OF BIOLOGICAL SCIENCES BEIJING, published 2023)
